# Reference: patent publication US7732133B2, “Screening methods for biologically active ligands” (Chugai Seiyaku Kabushiki Kaisha, priority 2000, dated 2010)
# B1: human Flt-3 ligand: human Flt-3 ligand (Genzyme) (protein, UniProt P49771 27-235, looked up)
# Fms-related tyrosine kinase 3 …: TQDCSFQHSPISSDFAVKIRELSDYLLQDYPVTVASNLQDEELCGGLWRLVLAQRWMERLKTVAGSKMQGLLERVNTEIHFVTKCAFQPPPSCLRFVQTNISRLLQETSEQLVALKPWITRQNFSRCLELQCQPDSSTLPPPWSPRPLEATAPTAPQPPLLLLLLLPVGLLLLAAAWCLHWQRTRRRTPRPGEQVPPVPSPQDLLLVEH
# Target: T1, chimeric Flt-3 receptor (human Flt-3 extracellular domain / mouse G-CSF receptor) in Ba/F3 cell line FLG (Homo sapiens, UniProt P36888)
# T1 construct: from the 1st to the 541st amino acid residues; expressed in transfected cells; host or cells: mouse Ba/F3 cells, clone FLG#102 = FLG
# Assay: Growth response of chimeric Flt-3 receptor-expressing Ba/F3 cell line FLG (WST-8)
# Format: cell-based
# Details: 74 hours culture, WST-8 absorbance
# Text: A chimeric receptor cDNA was constructed by linking cDNA fragments encoding the extracellular domain (from the 1st to the 541st amino acid residues; Small, D. et al. (1994) Proc. Natl. Acad. Sci. USA. 91, 459-463) of human Flt-3, and the transmembrane and intracellular domains (from the 602nd to the 813th amino acid residues; Fukunaga, R. et al. (1990) Cell 61, 341-350) of mouse G-CSF receptor. The cDNA was inserted downstream of the EF1α promoter of the mammalian expression vector pCOS2 to construct chimeric receptor-expression vector FLG/pCOS2. The FLG/pCOS2 was linearized with Hpa I (Takara Shuzo), extracted with phenol and chloroform, and purified by ethanol precipitation.
# The linearized expression gene vector was introduced into mouse Ba/F3 cells using an electroporation apparatus (Gene Pulser: Bio Rad). […]
# The cells were washed twice with Media A, and were suspended in Media A to give a cell density of 5×10^4 cells/mL. […] After the culture, 10 μl/well WST-8 reagent (Cell Count Reagent SF; Nacalai Tesque) was added, and pre-reaction absorbance at a measurement wavelength of 450 nm and a control wavelength of 655 nm was measured using microplate reader (Model 3550, Bio Rad). The plate was incubated for two hours in a CO2 incubator (CO2 concentration, 5%; humidity, 99.9%), and post-reaction absorbance was measured as above.
molecule,measurement,value
B1,concentration at which an evident growth reaction was observed,≥ 300 pg/mL
